Key:
[1] = target: AH receptor nuclear translocator (ARNT), full length (human) (UniProt P27540); experiment: yeast two-hybrid, Galacto-Light lacZ assay, 1 µM βNF
[2] = target: AH receptor nuclear translocator (ARNT), full length (human) (UniProt P27540); experiment: yeast two-hybrid, lacZ reporter (FIG. 3)
[3] = target: AH receptor nuclear translocator (ARNT), full length (human) (UniProt P27540); experiment: yeast two-hybrid, Galacto-Light lacZ assay, with vs without 1 µM βNF
[4] = target: Human CLOCK, full length (human) (UniProt O15516); experiment: cell-based or functional assay
Human CLOCK, full length (human), sequence (O15516 whole entry): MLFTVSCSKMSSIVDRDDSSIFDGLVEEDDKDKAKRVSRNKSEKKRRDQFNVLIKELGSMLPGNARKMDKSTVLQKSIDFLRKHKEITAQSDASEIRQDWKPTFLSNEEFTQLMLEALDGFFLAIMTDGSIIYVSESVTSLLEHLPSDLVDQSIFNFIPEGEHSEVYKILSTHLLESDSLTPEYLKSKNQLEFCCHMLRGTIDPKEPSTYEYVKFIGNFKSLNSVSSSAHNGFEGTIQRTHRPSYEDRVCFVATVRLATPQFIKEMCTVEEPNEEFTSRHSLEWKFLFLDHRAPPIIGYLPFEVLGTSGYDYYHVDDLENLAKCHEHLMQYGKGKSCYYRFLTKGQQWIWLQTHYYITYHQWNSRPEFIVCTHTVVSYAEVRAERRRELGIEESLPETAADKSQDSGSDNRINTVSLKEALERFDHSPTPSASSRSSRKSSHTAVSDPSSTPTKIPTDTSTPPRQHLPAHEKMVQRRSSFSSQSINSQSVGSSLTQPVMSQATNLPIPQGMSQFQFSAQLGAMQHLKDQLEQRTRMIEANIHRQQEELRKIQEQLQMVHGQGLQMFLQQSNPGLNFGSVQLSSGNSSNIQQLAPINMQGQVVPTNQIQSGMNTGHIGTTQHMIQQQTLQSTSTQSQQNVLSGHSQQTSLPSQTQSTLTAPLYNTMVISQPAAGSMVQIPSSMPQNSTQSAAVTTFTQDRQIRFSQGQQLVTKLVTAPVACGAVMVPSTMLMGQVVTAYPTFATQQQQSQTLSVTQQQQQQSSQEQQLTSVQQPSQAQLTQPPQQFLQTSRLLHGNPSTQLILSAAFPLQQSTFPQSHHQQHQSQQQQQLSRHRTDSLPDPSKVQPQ

MOP2 (human) = MOP2 (human) (UniProt Q99814); experiment: cell-based or functional assay
MOP2 (human), sequence (Q99814 other isoform, or with tags, fused parts or gaps limits assumed): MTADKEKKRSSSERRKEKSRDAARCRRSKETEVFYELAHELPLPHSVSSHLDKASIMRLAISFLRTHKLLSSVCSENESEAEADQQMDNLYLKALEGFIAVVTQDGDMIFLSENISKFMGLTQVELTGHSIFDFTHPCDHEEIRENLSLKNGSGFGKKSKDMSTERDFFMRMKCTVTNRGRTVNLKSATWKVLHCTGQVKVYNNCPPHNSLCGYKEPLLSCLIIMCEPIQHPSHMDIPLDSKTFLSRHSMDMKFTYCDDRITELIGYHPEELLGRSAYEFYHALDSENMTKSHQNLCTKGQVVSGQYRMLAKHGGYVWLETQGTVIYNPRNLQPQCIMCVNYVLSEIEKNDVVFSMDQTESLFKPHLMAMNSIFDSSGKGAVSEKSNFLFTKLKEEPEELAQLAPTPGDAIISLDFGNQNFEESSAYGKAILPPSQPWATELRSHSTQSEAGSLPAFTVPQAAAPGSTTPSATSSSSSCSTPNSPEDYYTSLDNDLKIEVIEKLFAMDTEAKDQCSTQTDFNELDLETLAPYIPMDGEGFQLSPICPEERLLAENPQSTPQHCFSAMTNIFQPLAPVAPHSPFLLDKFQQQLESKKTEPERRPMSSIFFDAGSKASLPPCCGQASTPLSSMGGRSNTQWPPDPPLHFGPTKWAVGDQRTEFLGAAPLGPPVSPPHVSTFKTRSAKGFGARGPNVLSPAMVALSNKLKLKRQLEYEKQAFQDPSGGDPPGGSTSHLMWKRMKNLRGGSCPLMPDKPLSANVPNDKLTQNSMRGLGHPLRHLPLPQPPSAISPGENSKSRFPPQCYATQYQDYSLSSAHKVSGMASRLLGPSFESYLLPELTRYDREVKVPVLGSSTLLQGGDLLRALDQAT

MOP4 (human) = MOP4 (human) (UniProt Q99743); experiment: cell-based or functional assay
MOP4 (human), sequence (Q99743 other isoform, or with tags, fused parts or gaps limits assumed): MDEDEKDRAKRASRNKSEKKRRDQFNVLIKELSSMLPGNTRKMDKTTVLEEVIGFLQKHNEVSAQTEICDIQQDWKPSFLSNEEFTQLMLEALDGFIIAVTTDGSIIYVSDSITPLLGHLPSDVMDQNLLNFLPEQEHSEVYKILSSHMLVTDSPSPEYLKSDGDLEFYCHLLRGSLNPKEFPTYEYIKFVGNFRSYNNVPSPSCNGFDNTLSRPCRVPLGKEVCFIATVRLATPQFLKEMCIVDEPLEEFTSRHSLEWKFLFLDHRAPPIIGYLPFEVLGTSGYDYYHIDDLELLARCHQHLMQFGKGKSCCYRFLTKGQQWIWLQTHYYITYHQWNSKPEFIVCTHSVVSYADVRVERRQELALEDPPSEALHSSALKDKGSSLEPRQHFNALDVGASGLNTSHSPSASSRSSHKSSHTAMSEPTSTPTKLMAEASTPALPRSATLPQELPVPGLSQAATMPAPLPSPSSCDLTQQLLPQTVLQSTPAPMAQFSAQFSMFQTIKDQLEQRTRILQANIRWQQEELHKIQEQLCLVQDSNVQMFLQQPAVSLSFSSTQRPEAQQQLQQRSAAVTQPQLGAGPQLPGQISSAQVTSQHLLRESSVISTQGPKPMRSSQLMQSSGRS

MOP1/HIF1α (human) = MOP1/HIF1α (human) (UniProt Q16665); experiment: cell-based or functional assay
MOP1/HIF1α (human), sequence (Q16665 whole entry): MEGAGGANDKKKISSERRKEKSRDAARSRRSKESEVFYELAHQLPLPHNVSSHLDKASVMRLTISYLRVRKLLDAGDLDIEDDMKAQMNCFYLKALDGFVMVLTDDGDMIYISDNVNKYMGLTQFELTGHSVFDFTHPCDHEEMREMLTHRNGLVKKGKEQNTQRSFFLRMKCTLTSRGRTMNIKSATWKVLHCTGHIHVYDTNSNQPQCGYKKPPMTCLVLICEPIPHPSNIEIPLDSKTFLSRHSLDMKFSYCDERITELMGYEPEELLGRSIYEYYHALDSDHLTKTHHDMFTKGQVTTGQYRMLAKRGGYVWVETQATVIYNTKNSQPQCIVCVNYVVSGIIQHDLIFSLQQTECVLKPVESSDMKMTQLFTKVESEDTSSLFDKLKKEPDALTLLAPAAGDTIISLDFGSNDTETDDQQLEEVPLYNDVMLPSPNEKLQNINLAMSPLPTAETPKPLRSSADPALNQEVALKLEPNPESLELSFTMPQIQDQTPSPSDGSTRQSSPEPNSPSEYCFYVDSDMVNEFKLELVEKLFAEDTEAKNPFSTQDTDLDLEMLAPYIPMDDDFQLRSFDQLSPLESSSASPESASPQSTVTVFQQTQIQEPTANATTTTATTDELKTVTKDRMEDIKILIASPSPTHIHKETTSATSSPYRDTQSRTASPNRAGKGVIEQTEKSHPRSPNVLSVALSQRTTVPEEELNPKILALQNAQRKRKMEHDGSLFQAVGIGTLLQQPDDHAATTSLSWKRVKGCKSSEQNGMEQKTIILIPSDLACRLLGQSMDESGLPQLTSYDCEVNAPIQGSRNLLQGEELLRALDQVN

AH receptor nuclear translocator (ARNT), full length (human), sequence (P27540 whole entry): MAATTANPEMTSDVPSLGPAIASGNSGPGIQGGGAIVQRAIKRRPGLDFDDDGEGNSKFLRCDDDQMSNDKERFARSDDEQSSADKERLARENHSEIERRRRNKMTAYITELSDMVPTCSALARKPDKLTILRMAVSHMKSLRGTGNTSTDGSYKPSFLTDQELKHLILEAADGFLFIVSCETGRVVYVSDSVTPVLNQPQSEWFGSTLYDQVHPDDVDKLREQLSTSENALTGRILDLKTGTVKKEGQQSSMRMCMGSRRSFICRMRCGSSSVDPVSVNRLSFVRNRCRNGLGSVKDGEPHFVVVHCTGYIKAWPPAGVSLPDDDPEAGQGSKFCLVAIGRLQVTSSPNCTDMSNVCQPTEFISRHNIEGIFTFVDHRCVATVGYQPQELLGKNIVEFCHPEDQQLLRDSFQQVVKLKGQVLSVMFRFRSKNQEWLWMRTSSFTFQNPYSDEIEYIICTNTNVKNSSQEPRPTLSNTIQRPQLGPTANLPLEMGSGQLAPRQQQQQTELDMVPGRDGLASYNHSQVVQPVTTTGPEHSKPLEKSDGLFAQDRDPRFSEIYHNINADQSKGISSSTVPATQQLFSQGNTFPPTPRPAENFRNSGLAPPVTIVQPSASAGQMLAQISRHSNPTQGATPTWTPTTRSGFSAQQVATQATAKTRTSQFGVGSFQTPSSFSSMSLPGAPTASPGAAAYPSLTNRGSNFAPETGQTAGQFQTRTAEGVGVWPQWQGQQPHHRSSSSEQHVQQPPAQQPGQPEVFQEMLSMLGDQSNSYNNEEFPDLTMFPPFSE

fold above background (lacZ reporter activity) [1] [fold]	fold relative to the LexAARNT-AHR interaction [2] [times]	fold over the same pair in the absence of ligand [3] [fold]	luciferase reporter with three copies of the M34 element, COS-1 cells [4] [fold]	luciferase reporter with six copies of the M13 element, COS-1 cells (MOP2 (human)) [fold]	luciferase reporter with three copies of the M34 element, COS-1 cells (MOP4 (human)) [fold]	luciferase reporter with six copies of the M13 element, COS-1 cells (MOP1/HIF1α (human)) [fold]	Substance
913	14.7	6.4					LexAAHR (from UniProt P0A7C2 1-202; P30561 1-805)
			5.6	3.6	3.3	3.3	full-length MOP3 (cDNA form identified by the yeast interaction trap)

— patent US7105647
